The results in this text go back to paper PMC3858840 (2013).

No end group written: not given here.

The test deals with calmodulin (Homo sapiens, UniProt P0DP23). As to the kind of experiment: TMR fluorescence titration.

Consider ARRLKKGKKSKRSMNDPY (also: TMR label, site not given here) [TMR-labeled L-selectin cytoplasmic peptide cytoplasmic domain], for which the Kd – broadly, the concentration at which binding is half-saturated – was roughly 1000 nM.
